What was measured:
[1] = molecular target: Flag-tagged PU.1 Q202L (human) (UniProt P17947)
[2] = molecular target: Flag-tagged PU.1 wild-type (human) (UniProt P17947)
[3] = molecular target: Flag-tagged PU.1 Y252N (human) (UniProt P17947)
[4] = molecular target: Flag-tagged PU.1 F203Y (human) (UniProt P17947)

How did the luciferase activity of the human M-CSFR promoter reporter, F9 cells, PU.1 mutant co-transfected with c-Jun, fold activation [1] turn out when “myc-tagged c-Jun (from UniProt P05412 1-331) (natural protein)” was run?
The luciferase activity of the human M-CSFR promoter reporter, F9 cells, PU.1 mutant co-transfected with c-Jun, fold activation was 5 fold.

And the luciferase activity of the human M-CSFR promoter reporter, F9 cells (no endogenous c-Jun), PU.1 co-transfected with c-Jun, fold activation [2]?
The luciferase activity of the human M-CSFR promoter reporter, F9 cells (no endogenous c-Jun), PU.1 co-transfected with c-Jun, fold activation was 25 fold.

What about the luciferase activity of the human M-CSFR promoter reporter, F9 cells, PU.1 mutant co-transfected with c-Jun, fold activation [3] of the same substance?
The luciferase activity of the human M-CSFR promoter reporter, F9 cells, PU.1 mutant co-transfected with c-Jun, fold activation was 3.5 fold.

What about the luciferase activity of the human M-CSFR promoter reporter, F9 cells, PU.1 mutant co-transfected with c-Jun, fold activation [4] of the same substance?
Its luciferase activity of the human M-CSFR promoter reporter, F9 cells, PU.1 mutant co-transfected with c-Jun, fold activation is 5 fold.

Reference: article PMC9474506
